Data as given in the supplement of paper PMC9170038.

Assays:
MS2 coat protein [1] = assay: apparent KD of MS2 coat protein; designed switch direction (-1 OFF switch, 1 ON switch): -1; higher = weaker reporter binding; settings: Eterna round: R98
Procedure: (§1)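 RNA-MaP: designed FMN/MS2 RNA switches (84 nt design region) are transcribed on-chip within common flanks and titrated with SNAP-549-labelled MS2 coat protein (about 1-3000 nM) in 100 mM Tris pH 7.5, 80 mM KCl, 4 mM MgCl2, without or with 200 uM FMN. Median apparent KD per design; activation ratio = KD,OFF / KD,ON.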

MS2 coat protein [2] = assay: apparent KD of MS2 coat protein; higher = weaker reporter binding; settings: Eterna round: R101
Procedure: as §1

MS2 coat protein [3] = assay: apparent KD of MS2 coat protein; designed switch direction (-1 OFF switch, 1 ON switch): 1; higher = weaker reporter binding; settings: Eterna round: R98
Procedure: as §1

| Sequence | apparent KD of MS2 coat protein (MS2 coat protein [1]; input ligand: FMN 200 uM) | apparent KD of MS2 coat protein (MS2 coat protein [1]; input ligand: none) | apparent KD of MS2 coat protein (MS2 coat protein [2]; input ligand: FMN 200 uM) | apparent KD of MS2 coat protein (MS2 coat protein [2]; input ligand: none) | further results |
| --- | --- | --- | --- | --- | --- |
| AAUUAAUUAAUUAAUUGGACUGAUACAUGAGGAUCACCCAUGUAGGAUAUGCAGUGGAAUACACUGCAGAAGGACAUACAGUCC [Exclusion NG 3/1-B2] | 18.3 nM | 14.5 nM | – | – | – |
| AAUAAACAAUAAAAGACUGGAGCAAACUUCUGAGGAUCACCCAGAAGGCGUCACCUAAUAGGUGACGAGGAUAUGGAGCUCCAG [#SharedSequence IExNG# - 2] (puzzle (switch architecture): Inverted Exclusion NG 3) | – | – | 6.36 nM | 5.76 nM | – |
| AGUACUCCAGAAGGAUAUGCGUCGGUGGAUGUCCUUAGGCGGACGGUCACAUGAGGAUCACCCAUGUAGAAGGUCUGGGAGCCA [Leesla] | 87.3 nM | 19.2 nM | – | – | – |
| AGAGCUGCUCAGAAGGAGGAUCACCCUUUCGAAAGAAAUACGGAGGCUGAAAAGCCUCCGAAAUCUUAGGAUAUGAGCAGCUCA [#SharedSequence - IExNG2: 6] (puzzle (switch architecture): Inverted Exclusion NG 2) | – | – | 166 nM | 153 nM | – |
| CACGACAGGAAACGGAGCGGCCAACAUGAGGAUCACCCAUGUGAGGAUAUGCCUACUAAAAGUAGGCAGAAGGCACAGAAGGCA [Ex NG2 #73] | 136 nM | 58.1 nM | – | – | – |
| CUUACUUUGUAGAAGGGUGACAUGAGGAUCACCCAUGUGCGUCUCCUGAAAGACCAGGGUACGCCACAGGAUAUACAAAGUAAG [Tigeatdi] (puzzle (switch architecture): Inverted Same State NG 2) | – | – | 59.8 nM | 116 nM | – |
| UUGCAUUGAUGAGGAUAUGGACAUGAGGAUCACCCAUGUUGGGCGGGUAUGAUUUCCGAGGGAGGCUAGAAGGCGUAUUAUGUU [Exclusion NG 2] | 60.8 nM | 45.5 nM | – | – | – |
| GCAGCUAAUGCAGGAUAUCAGCACGUGUAGUGCUGAGAAGGGCACAUGAGGAUUCUGUCUGUGAUCAAUUAAUAUUAAUGCUGC [salish99#hingeEx3_55-58_006] (puzzle (switch architecture): Exclusion NG 1) | – | – | 11.5 nM | 30.4 nM | – |
| AGGUGGGUGCUGCAGUGAUAUACAUGAGGAUCACCCAUGUCCGAGGAUAUGCGGCAAACACGCCAGCAGAAGGCGGAGAAAAUG [Soorisrila] | 154 nM | 125 nM | – | – | – |
| CUCCCUCCCUCCCUCCCUCCCUCCGAGGAUAUCCCAAACUCCCUCCCUCCCUCCCUCCCAAAUUCCCAGAAGGCCCUUUUUCCC [2nd design] (puzzle (switch architecture): Small Loop Same State NG 3) | – | – | 4.61 nM | 46.4 nM | – |
| UAAUUAUGGUGAGGAUAUGCACAGGAUCACCGUGUAGAAGGCAUCAGGUAGAAGGUGCAGAGGAUCACCCUGUAAGGAUAUAUC [pwkr2 ssNG1 DX.18] | – | – | – | – | apparent KD of MS2 coat protein (MS2 coat protein [3]; input ligand: FMN 200 uM): 102 nM; apparent KD of MS2 coat protein (MS2 coat protein [3]; input ligand: none): 722 nM |
| AGACCUGCUCAGAAGGUGGGAACGAGGCUGGAAACAGCCUCGAAAUUAAAUCCUUGAGGAUCACCCAAGGAUAUGAGCAGGUCA [#SharedSequence - IExNG2: 12] (puzzle (switch architecture): Inverted Exclusion NG 2) | – | – | 84.3 nM | 10.3 nM | – |
| CAAUUGGCACAGAAGGGUGACAUGAGGAUCACCCAUGUAGCGUGGCUCUCAGGAGGAGCCACGCCACAGGAUAUGUGCCGGCAC [Anrilaage] (puzzle (switch architecture): Inverted Same State NG 2) | – | – | 102 nM | 177 nM | – |
